Experimental findings from publication PMC3902904, “Intrinsically disordered regions of nucleophosmin/B23 regulate its RNA binding activity through their inter- and intra-molecular association” (Nucleic Acids Research, 2013) are described below.

One data set deals with GST-B23.1-CR (human). The data set is described as follows: GST pull-down. The settings on record: total RNA, 300 mM NaCl wash; Sucrose gradient 15-40%, 5 µg protein with 10 µg 293T total RNA (buffer not given in the material); GST pull-down 2 µg protein, 5 µg total RNA, wash 300 mM ….
For a further data set, the system named is GST-B23.1-CRD (human). The data set is described as follows: GST pull-down. The settings on record: total RNA, 300 mM NaCl wash; Sucrose gradient 15-40%, 5 µg protein with 10 µg 293T total RNA (buffer not given in the material); GST pull-down 2 µg protein, 5 µg total RNA, wash 300 mM ….
The next data set addresses His-B23.1-ΔN (human) (UniProt P06748). Briefly: cross-linking; 0.1% glutaraldehyde, 10 min, room temperature, 20 mM Hepes-NaOH pH 7.9, 50 mM NaCl; SDS-PAGE, CBB staining; increased protein concentration (3.0 and 4.5 µM; lanes 5 and 6 at 4.5 µM).
A further data set addresses T1, GST-B23.1-CR1 (human, UniProt P06748 189-259).
T1 construct: nucleophosmin NPM1/B23, variant B23.1, human, amino acids 189-259 (basic IDR); limits are printed for B23.1-CR1 in the CD experiment; also called bIDR; basic IDR; source: E. coli BL21 (DE3), purified (Glutathione sepharose, MNase-treated)
The data set is described as follows: native gel or EMSA; GST-B23.1-A (0.5 µg) mixed with increasing amounts (0.5, 1.0, 2.0, 4.0 µg) of the other GST-tagged fragment in 10 µl buffer H, 30 min, room temperature; 6% native PAGE in 0.5x TBE, CBB staining. Conditions: both partners purified.

A further data set has as its target T2, GST-B23.1-CR (human, UniProt P06748 189-294).
T2 construct: nucleophosmin NPM1/B23, variant B23.1, human, basic IDR and CTD; amplified with the same forward primer as CR1 (which begins at 189, KAPVKK) and the T7 terminator primer; also called unphosphorylated GST-B23.1-CR; source: E. coli BL21 (DE3), purified (Glutathione sepharose, MNase-treated)
Described as above. The settings on record: both partners purified.

For a further data set, the target named is T3, GST-B23.1-CRA (human, UniProt P06748 189-294, threonine 199 replaced with alanine (A) | threonine 219 replaced with alanine …).
T3 construct: nucleophosmin NPM1/B23, variant B23.1, human, B23.1-CR with threonines 199, 219, 234 and 237 replaced with alanine; source: E. coli BL21 (DE3), purified (Glutathione sepharose, MNase-treated)
T3 sequence (P06748 other isoform, or with tags, fused parts or gaps with the stated changes): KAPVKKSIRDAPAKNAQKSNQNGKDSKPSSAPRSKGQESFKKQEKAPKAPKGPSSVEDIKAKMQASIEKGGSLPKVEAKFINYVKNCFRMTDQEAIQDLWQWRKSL
The data set is described as above. Conditions: both partners purified.

For the next data set, the target named is T4, GST-B23.1-CRD (human, UniProt P06748 189-294, threonine 199 replaced with aspartic acid (D) | threonine 219 replaced with …).
T4 construct: nucleophosmin NPM1/B23, variant B23.1, human, B23.1-CR with threonines 199, 219, 234 and 237 replaced with aspartic acid; also called phosphomimetic mutant; source: E. coli BL21 (DE3), purified (Glutathione sepharose, MNase-treated)
T4 sequence (P06748 other isoform, or with tags, fused parts or gaps with the stated changes): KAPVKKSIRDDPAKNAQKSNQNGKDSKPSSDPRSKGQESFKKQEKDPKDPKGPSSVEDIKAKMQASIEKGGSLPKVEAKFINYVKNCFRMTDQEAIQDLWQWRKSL
The description is as above. The settings on record: both partners purified.

T1 sequence (P06748 189-259): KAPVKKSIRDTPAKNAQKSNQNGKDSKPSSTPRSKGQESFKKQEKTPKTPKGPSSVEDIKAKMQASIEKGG
T2 sequence (P06748 189-294): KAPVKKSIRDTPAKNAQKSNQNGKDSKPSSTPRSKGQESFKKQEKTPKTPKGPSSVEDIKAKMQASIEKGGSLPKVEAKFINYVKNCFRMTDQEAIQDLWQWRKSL

For 18S rRNA, the binding signal (% (reference)) in the data set with GST-B23.1-CR (human) came out at 100. Also, the binding signal (% of GST-B23.1-CR) with GST-B23.1-CRD (human) turned out to be 25.
Consider 28S rRNA, for which the binding signal (% (reference)) with GST-B23.1-CR (human) was 100. The molecule also returned a binding signal (% of GST-B23.1-CR) with GST-B23.1-CRD (human) of 35.
“His-B23.1-ΔN (from UniProt P06748 120-294) (domain or fragment)” had a stoichiometry N in the data set with His-B23.1-ΔN (human) of 2.

B1: GST-B23.1-A (domain or fragment, human, UniProt P06748 120-188, looked up)
chain: EEDAESEDEEEEDVKLLSISGKRSAPGGGSKVPQKKVKLAADEDDDDDDEEDDDEDDDDDDFDDEEAEE
notes: nucleophosmin NPM1/B23, variant B23.1 (longest variant), human, amino acids 120-188 (acidic IDR); The construction of pGEX2T-B23.1-A is not described in the methods; also called GST-tagged B23-A; aIDR; source: E. coli BL21 (DE3), purified (Glutathione sepharose, MNase-treated)
For the molecule B1, the binding result in the data set with GST-B23.1-CR1, with GST-B23.1-CR, with GST-B23.1-CRA and in the data set with GST-B23.1-CRD was “binds” each time.
